Assay results as given in article doi:10.1101/2022.11.25.517900 (bioRxiv, 2022).

Target: the molecule itself
Assay: cryo-EM structure

B1: Vibrio alginolyticus PomB, full length, non-cleaved (without protease site insertion) (natural protein, UniProt O06874 1-315, looked up)
chain: MDDEDNKCDCPPPGLPLWMGTFADLMSLLMCFFVLLLSFSEMDVLKFKQIAGSMKFAFGVQNQLEVKDIPKGTSIIAQEFRPGRPEPTPIDVIMQQTMDITQQTLEFHEGESDRAGGTKRDEGKLTGGQSPATSTQNNESAEADMQQQQSKEMSQEMETLMESIKKALEREIEQGAIEVENLGQQIVIRMREKGAFPEGSAFLQPKFRPLVRQIAELVKDVPGIVRVSGHTDNRPLDSELYRSNWDLSSQRAVSVAQEMEKVRGFSHQRLRVRGMADTEPLLPNDSDDNRALNRRVEISIMQGEPLYSEEVPVIQ
- binding result: binds
